Data taken from US7109015B2, “Removal of N-terminal methionine from proteins by engineered methionine aminopeptidase” (Academia Sinica, priority 2004, dated 2006).
Read-outs that look alike come from different tables or passages of the source. Marks after values point to notes of the source that are not given here.

How the values were obtained:
RC-RNase4 = assay: In vivo Met removal, co-expression in E. coli, RC-RNase 4 substrate; format: cell-based, Rana catesbeiana; settings: solubility −
RC-RNase6 = RC-RNase6 (Escherichia coli, UniProt P0AE18, M206T/Q233G); settings: substrate MQDWD (SEQ ID NO:12)-RC6; solubility −
Source text: (§1) The rpr (AF332139) gene encoding for the target protein, onconase, from Rana pipiens was tagged with NdeI and BamHI site at the 5′ and 3′ end, respectively, and inserted downstream of T7 promoter in the expression vector pET22b (Novagen) (Liao et al., 2003; Huang et al., 1998; Liao et al., 2000). The other target proteins were also cloned by the same method, including RC-RNase L1 (AF288642.2), RC-RNase 2 (AF242553), RC-RNase 3 (AF242554), RC-RNase 4 (AF242555), RC-RNase6 (AF242556) from Rana catesbeiana, CA150 (a transcription elongation regulator 1; NM_006706) and glutathione S-transferase (M14654).
(§2) The Escherichia coli methionine aminopeptidase gene (Accession Number M 15106) or its mutant was fused with the T7 promoter by three steps of PCR and inserted into the same pET22b vector containing a target protein, as described above, through SacI and HindIII. […] The second PCR was performed using the PCR product from step 1 as 5′ megaprimer, oligonucleotide 3 (5′[…]3′; SEQ ID NO:4) as 3′ primer, and the E. coli MetAP gene (M15101) as template (Huang et al., 1998; Ben-Bassat et al., 1987). The third PCR was to amplify the second PCR product using oligonucleotide 1 and oligonucleotide 3 as primers. The genes encoding the target protein and E. coli MetAP have their own T7 RNA polymerase promoter, but they may be transcribed into the same RNA molecule for cotranslation because only one transcription terminator exists, downstream of the MetAP gene. Alternatively, the MetAP gene alone may be directly subcloned into vector pET29b through the SacI and HindIII site.
(§3) The MetAP was expressed alone or co-expressed with a target protein, i.e., onconase and RC-RNaseL1, in E. coli BL21 (DE3) in the presence of 0.5 mM IPTG at 37° C.
(§4) Proteins in the cell pellet or in the soluble fraction were separated by 13.3% SDS-PAGE and contact-transferred to ProBlott™ membrane (Applied Bioystems) in transfer buffer (10 mM Tris-HCl, pH 7.5, 50 mM NaCl, 2 mM EDTA, 0.5 mM 2-mercaptoethanol) overnight. The five N-terminal residues of the transferred protein were determined by Edman degradation. The percentage of Met removal was calculated by dividing the amount of proteins initiated with the penultimate residue with the amount of total proteins (including proteins initiated with the penultimate residue and unprocessed protein initiated with Met) after the first degradation cycle. In theory, this percentage should remain the same after each degradation cycle. Therefore, in order to avoid experimental variation, the same calculation was made from five consecutive degradation cycles, e.g., M, Q, N, W and L for onconase. The efficiency of Met removal is reported as the mean values of at least three cycles. The mass spectrum analysis was carried out as described previously (Liao et al., 2003).

RC-RNase2 = RC-RNase2 (Escherichia coli, UniProt P0AE18, M206T/Q233G); settings: substrate MQNEW (SEQ ID NO:17)-RC2; solubility −
Source text: as §1, §2, §3, §4

RC-RNase3 = RC-RNase3 (Escherichia coli, UniProt P0AE18, M206T/Q233G); settings: substrate MQDWE (SEQ ID NO:11)-RC3; solubility −
Source text: as §1, §2, §3, §4

RC-RNaseL1 = RC-RNaseL1 (Escherichia coli, UniProt P0AE18, M206T/Q233G); settings: solubility −
Source text: as §1, §2, §3, §4

[1] = target: glutathione S-transferase (GST) (Escherichia coli, UniProt P0AE18, M206T/Q233G); settings: substrate MQDIL (SEQ ID NO:21)-GST
Source text: as §1, §2, §3, §4

[2] = target: CA150, a transcription elongation regulator 1 (Escherichia coli, UniProt P0AE18, M206T/Q233G); settings: substrate MLAGA (SEQ ID NO:20)-CA150; solubility +
Source text: as §1, §2, §3, §4

[3] = substrate MAAWA (SEQ ID NO:15)-RC4
[4] = substrate MAPWA (SEQ ID NO:16)-RC4
[5] = substrate MQAWA (SEQ ID NO:14)-RC4
[6] = substrate MQNWA (SEQ ID NO:18)-RCL1

B1: MetAP-*TG (protein)
chain: AISIKTPEDIEKMRVAGRLAAEVLEMIEPYVKPGVSTGELDRICNDYIVNEQHAVSACLGYHGYPKSVCISINEVVCHGIPDDAKLLKDGDIVNIDVTVIKDGFHGDTSKMFIVGKPTIMGERLCRITQESLYLALRMVKPGINLREIGAAIQKFVEAEGFSVVREYCGHGIGRGFHEEPQVLHYDSRETNVVLKPGMTFTIEPTVNAGKKEIRTMKDGWTVKTKDRSLSAGYEHTIVVTDNGCEILTLRKDDTIPAIISHDE
RC-RNase4; [3]
  Catalytic activity (%): percent of penultimate residue removed: 18%
  Catalytic activity (%): removal of N-terminal Met: 100%
RC-RNase4; [4]
  Catalytic activity (%): percent of penultimate residue removed: 63%
  Catalytic activity (%): removal of N-terminal Met: 79%
RC-RNase4; [5]
  Catalytic activity (%): percent of penultimate residue removed: 100 (100)^c %
  Catalytic activity (%): removal of N-terminal Met: 100 (100)^c %
RC-RNase4; substrate MQDWA (SEQ ID NO:13)-RC4
  Catalytic activity (%): removal of N-terminal Met: 93%
RC-RNase6
  Catalytic activity (%): removal of N-terminal Met: 82%
RC-RNase2
  Catalytic activity (%): percent of penultimate residue removed: 56%
  Catalytic activity (%): removal of N-terminal Met: 80%
RC-RNase3
  Catalytic activity (%): removal of N-terminal Met: 96%
RC-RNaseL1; substrate MQDWA (SEQ ID NO:19)-RCL1
  Catalytic activity (%): removal of N-terminal Met: 99%
RC-RNaseL1; [6]
  Catalytic activity (%): percent of penultimate residue removed: 62%
  Catalytic activity (%): removal of N-terminal Met: 96%
[1]; solubility +, same vector
  Catalytic activity (%): removal of N-terminal Met: 87%
[1]; solubility +, target in pET22b co-transformed with MetAP in pET29b
  Catalytic activity (%): removal of N-terminal Met: 71%
[1]; solubility −, same vector
  Catalytic activity (%): removal of N-terminal Met: 85%
[1]; solubility −, target in pET22b co-transformed with MetAP in pET29b
  Catalytic activity (%): removal of N-terminal Met: 70%
[2]
  Catalytic activity (%): percent of penultimate residue removed: 71%
  Catalytic activity (%): removal of N-terminal Met: 100%
